From publication PMC7093204 (Nature, 2020) come the findings set out here.

The chains are these.
B1: Rsc8 (natural protein)
chain: MSDTEKDKDVPMVDSHEATEEPPTTSTNTPSFPHLAQEQAKEESATLGAEVAHKKINYEQEAQKLEEKALRFLAKQTHPVIIPSFASWFDISKIHEIEKRSNPDFFNDSSRFKTPKAYKDTRNFIINTYRLSPYEYLTITAVRRNVAMDVASIVKIHAFLEKWGLINYQIDPRTKPSLIGPSFTGHFQVVLDTPQGLKPFLPENVIKQEVEGGDGAEPQVKKEFPVNLTIKKNVYDSAQDFNALQDESRNSRQIHKVYICHTCGNESINVRYHNLRARDTNLCSRCFQEGHFGANFQSSDFIRLENNGNSVKKNWSDQEMLLLLEGIEMYEDQWEKIADHVGGHKRVEDCIEKFLSLPIEDNYIREVVGSTLNGKGGDSRDGSVSGSKLMECVNDAVQTLLQGDDKLGKVSDKSREISEKYIEESQAIIQELVKLTMEKLESKFTKLCDLETQLEMEKLKYVKESEKMLNDRLSLSKQILDLNKSLEELNVSKKLVLISEQVDSGIQLVEKDQEGDDEDGNTATGHGVKRVGKEGEEVGEGDSIAKLQPQVYKPWSL

The data set “cryo-EM structure” deals with the molecule itself. Kind of data set: cryo-EM structure.
The data set “Rsc8” addresses B1. Description: cryo-EM structure.

For B1, in the data set “cryo-EM structure”, the binding result is “binds”.

B2: Sfh1 (natural protein)
chain: MSHQNQLIPQAYISNFHNRLTNEDDGIPIFTMAQQTRQHKRAKVVNYAEYDNDLFDEFNMNGSNFNNADTHYKDNAVSHENTPALTNGVTMDGSEYNVLENMNGADSIISNNKYDAGSNMVVESLSGLNSNNNASNGPSNKAQAQDIGNAVLPDLQDQHHNPFNILRYPKIRDTFINGKVVSPYRLNTDQETKANANSGEAIMIPITLDIEHMGHTIKDQFLWNYNDDSISPEEFASIYCKDLDMTSATLQTQIANIIKEQLKDLENIAATEIMSDLHVIINLTCNLQDRFFEDNFQWNLNDKSLTPERFATSIVQDLGLTREFIPLISQSLHETILKIKKDWVDGHLIQDHVPNDAAFGYLSGIRLDIDELGSNWCPRVEILTKEEIQKREIEKERNLRRLKRETDRLSRRGRRRLDDLETTMRM
Regarding B2, the binding result in the data set with Rsc8 was “binds”.

B3: Rsc6 (natural protein)
chain: MVTQTNPVPVTYPTDAYIPTYLPDDKVSNLADLKKLIEMDSRLDLYLTRRRLDTSINLPTNTKTKDHPPNKEMLRIYVYNTTESSPRSDSGTPADSGKTTWTLRIEGKLLHESANGKHPFSEFLEGVAVDFKRLKPLGMGKKRKRDSSLSLPLNLQQPEYNDQDSTMGDNDNGEDEDSAEAESREEIVDALEWNYDENNVVEFDGIDIKRQGKDNLRCSITIQLRGVDGGKVQYSPNLATLIGMQTGSVNDAVYSIYKYILINNLFVTEQTEAQDGSNDAEDSSNENNNKNGAGDDDGVEGSTPKDKPELGEVKLDSLLQKVLDTNAAHLPLMNVVQTVNKLVSPLPPIILDYTIDLSKDTTYGATTLDVDVSHILHQPQPQPNLQKEEETDAEDTAKLREITKLALQLNSSAQKYQFFHELSLHPRETLTHYLWSSKQNELVLQGDQYFNEDAARTSDIYSNNNNDRSLMGNISLLYSQGRL
Take B3: in the data set with Rsc8, the binding result is listed as “binds”.
